These results are taken from patent US20230250185A1 (ARCELLX, published 2023).

Where a chain is given by its changes, count along the chain named. In names and notes the source's numbering stands.

To fix the notation:
B1: Adapter protein comprising the 8W9C D domain and P26(Q26-V229) AFP polypeptide (designed binder)
chain: MGSWDEFGRRLYAIEWRLYALGGSEAELAAFEKEIAAFESELQAYKGKGNPEVEKLREIAAVIRSNLQAYRHN
B2: Adapter protein comprising the 1F9I D domain and P26(Q26-V229) AFP polypeptide (designed binder)
chain: B1 chain with R17Q, L21Q, S24T, I59L, S65E
B3: 8W9C D domain as MBP fusion (designed binder)
chain: B1 chain
notes: Expressed in E. coli and assayed from leak-out supernatant; also called wild-type (8W9C); parental 8W9C; not shown: limits, linker and position relative to the D dom
B4: 6Z5E D domain as MBP fusion (designed binder, not shown: large carriers; small tags and cut ends)
chain: B1 chain with N50S
notes: also called 8W9C (N50S)
B5: 4H2H D domain as MBP fusion (designed binder, not shown: large carriers; small tags and cut ends)
chain: B1 chain with K48I, K55N
notes: also called 8W9C (K48I, K55N)
B6: 5S5W D domain as MBP fusion (designed binder)
chain: MGSWSEFNMRLDAIYERLTALGGSEAELAAFEKEIAAFESELQAYKGKGNPEVEWLRHSAARIRLELQAYRHN
notes: not shown: limits, linker and position relative to the D dom
B7: 5B7L D domain as MBP fusion (designed binder)
chain: B6 chain with S5I, T19V, H58K, S59V, R62N
notes: as for B6
B8: 1J1K D domain as MBP fusion (designed binder, not shown: large carriers; small tags and cut ends)
chain: B1 chain with G8S
notes: also called 8W9C (G8S)

The target of the first assay is T1, CD123-Fc (Sino Biological) (human, UniProt P26951 19-305).
T1 construct: Bought reagent; not shown: Fc part of the bought fusion (detected with anti-human Fc HRP)
T1 sequence: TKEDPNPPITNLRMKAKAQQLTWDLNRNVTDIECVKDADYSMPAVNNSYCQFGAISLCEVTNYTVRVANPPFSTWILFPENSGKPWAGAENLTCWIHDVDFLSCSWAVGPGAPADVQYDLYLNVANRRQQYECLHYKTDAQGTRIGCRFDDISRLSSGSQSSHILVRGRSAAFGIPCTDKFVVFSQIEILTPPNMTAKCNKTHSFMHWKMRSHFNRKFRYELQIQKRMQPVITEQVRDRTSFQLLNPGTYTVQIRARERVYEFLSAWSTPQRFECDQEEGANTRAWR
The assay can be described thus: BLI (Octet RED386): CD123-Fc captured on AHC sensor, Adapter in solution 500-0.69 nM, 25 C, global 1:1 fit.
The term Kd denotes the free concentration of one partner at which half of the binding sites on the other are occupied at equilibrium, for simple one-to-one binding. Read a high Kd as lower affinity. The term koff denotes the first-order rate constant of dissociation. Usually kon stands for the rate constant with which the complex forms. High values mean fast association, low ones slow association. Molecule B1 gave a Kd of 5.2 nM, a koff of 0.000924 s⁻¹ and a kon of 177000 M⁻¹ s⁻¹.
For the molecule B2, the Kd was found to be 7.6 nM, the koff stood at 0.000646 s⁻¹ and the kon stood at 85200 M⁻¹ s⁻¹.

In the next assay the target is T1, CD123-Fc (Sino Biological). Kind of assay: ELISA, serial dilution of MBP fusion normalized for protein concentration; readout CD123-Fc Binding (A450).
One may read the EC50 as the concentration that produces a half-maximal response. A high value points to weaker potency. On to B3, for which a half-maximal effect (EC50) was put at 6.97 ng/mL.
Consider B4, for which the midpoint of the response, the EC50, lay at 3.26 ng/mL.
Consider B5, for which a half-maximal response (EC50) required 5.4 ng/mL.
Same read-out and setting: the figure for B6 is 57.9 ng/mL; for B7 it is 3.72 ng/mL.

For another assay, the target named is T1, CD123-Fc (Sino Biological). The description is as above. The source holds these as a separate data set.
Consider B3, for which it took 7.47 ng/mL to reach a half-maximal effect (EC50).
The molecule B8 yielded a half-maximal effective concentration (EC50) of 3.69 ng/mL. This EC50 is about 2-fold lower than that of the molecule before.
For the molecule B6, the EC50 came to 68.7 ng/mL. This EC50 lies about 19-fold higher than the previous one.
Take B7: the EC50 worked out at 5.12 ng/mL.
